Results taken from patent US20140134169A1, “Methods of Treating Ovarian Cancer with Dll4 Antagonists” (Regeneron Pharmaceuticals, Inc., priority 2012, published 2014).

Legend:
Format in all cases: in vivo, human
TOV-112D cells = test: TOV-112D ovarian xenograft (subcutaneous) tumor growth inhibition; settings: SCID mice (native murine Dll4); REGN421 2.5 mg/kg or mDll4Ab1 5 mg/kg 1x/week
Procedure: (§1) Ovarian tumor xenograft cells were implanted into humanized Dll4 SCID mice or vendor SCID mice (i.e., SCID mice expressing native murine Dll4). After implantation, mice were treated with REGN421 (anti-human Dll4 antibody, binds to human Dll4), mDll4Ab1 (anti-murine Dll4 antibody, binds to murine Dll4), or a human Fc domain control protein. In one study, mice were treated with VEGF-Trap, mDll4Ab1 or VEGF-Trap plus mDll4Ab1. TOV-112D cells (5×10^6) were implanted subcutaneously into the right flank of humanized Dll4 (n=4) or vendor SCID mice (n=7). Treatment with REGN421 (2.5 mg/kg, 1×/week) or mDll4Ab1 (5 mg/kg, 1×/week) vs. hFc control was initiated one week after tumor cell implantation. Animals were treated for 2 to 3 weeks. A2780 cells (2×10^6) were implanted intraperitoneally into humanized Dll4 or vendor SCID mice (n=4-5). Treatment with REGN421 (2.5 mg/kg, 1×/week) or mDll4Ab1 (5 mg/kg, 1×/week) vs. hFc control was initiated one week after tumor cell implantation. For the A2780 combination study, simultaneous treatment with mDll4Ab1 (5 mg/kg, 1×/week) and VEGF-Trap (10 mg/kg, 2×/week) was initiated one week after tumor cell implantation. A VEGF-Trap single treatment arm was included in this study. Animals bearing A2780 tumors were treated for 4-5 weeks. SKOV-3 cells (5×10^6) in matrigel were implanted subcutaneously and tumor-bearing animals (n=10) were dosed with REGN421 (2.5 mg/kg) and mDll4Ab1 (5 mg/kg) once weekly. OVCAR-3 cells (1×10^7) were implanted subcutaneously into the right flank of vendor SCID mice (n=7). Treatment with mDll4Ab1 (5 mg/kg 1×/week) vs. hFc control was initiated 66 days after tumor cell implantation. Animals were treated for a total of 5 weeks. Tumor growth inhibition (TGI) was measured as detailed above.

A2780 cells = test: A2780 ovarian xenograft (intraperitoneal) tumor growth inhibition; settings: SCID mice (native murine Dll4); REGN421 2.5 mg/kg 1x/week, mDll4Ab1 5 mg/kg 1x/week, VEGF-Trap 10 mg/kg 2x/week
Procedure: as §1

SKOV-3 cells = test: SKOV-3 ovarian xenograft (subcutaneous) tumor growth inhibition; settings: SCID mice; mDll4Ab1 5 mg/kg once weekly
Procedure: as §1, with “SKOV-3 cells (5×10^6) in matrigel were implanted subcutaneously and tumor-bearing animals (n=10) were dosed with REGN421 (2.5 mg/kg) and mDll4Ab1 (5 mg/kg) once weekly. OVCAR-3 cells (1×10^7) were implanted subcutaneously into the right flank of vendor SCID mice (n=7). Treatment with mDll4Ab1 (5 mg/kg 1×/week) vs. hFc control was initiated 66 days after tumor cell implantation. Animals were treated for a total of 5 weeks.” left out

OVCAR-3 cells = test: OVCAR-3 ovarian xenograft (subcutaneous) tumor growth inhibition; settings: SCID mice; mDll4Ab1 5 mg/kg 1x/week, 5 weeks
Procedure: as §1, with “SKOV-3 cells (5×10^6) in matrigel were implanted subcutaneously and tumor-bearing animals (n=10) were dosed with REGN421 (2.5 mg/kg) and mDll4Ab1 (5 mg/kg) once weekly. OVCAR-3 cells (1×10^7) were implanted subcutaneously into the right flank of vendor SCID mice (n=7). Treatment with mDll4Ab1 (5 mg/kg 1×/week) vs. hFc control was initiated 66 days after tumor cell implantation. Animals were treated for a total of 5 weeks.” left out

[1] = tested on: TOV-112D ovarian tumor xenografts; test: Tumor microvascular density by CD31 staining, TOV-112D xenograft; settings: native Dll4 SCID mice
Procedure: (§2) Quantitation of tumor microvascular density was evaluated immunohistochemically using CD31 staining. Native Dll4 SCID mice with TOV-112D and SKOV-3 ovarian tumor xenografts were treated with the anti-murine Dll4 antibody mDll4Ab1 or hFc (control). […] A reduction of tumor perfusion was also seen (data not shown).

[2] = tested on: SKOV-3 ovarian tumor xenografts; test: Tumor microvascular density by CD31 staining, SKOV-3 xenograft; settings: native Dll4 SCID mice
Procedure: as §2

[3] = tested on: TOV-112D and SKOV-3 ovarian tumor xenografts; test: Tumor perfusion in ovarian tumor xenografts; settings: data not shown
Procedure: as §2

B1: mDII4Ab1: anti-murine Dll4 antibody with LCVR and HCVR of SEQ ID NO:122 and 123 (antibody)
heavy: EVQLVESGGDLVKPGGSLKLSCTASGFTFSNYGMSWVRQTPDKRLGWVATISTAGSYTYYPDSVKGRFTISRDNAKNTLYLQMSSLKSEDTAMYYCARHPGVADFDYWGQGTTLTVSSAKTTAPSVYPLAPVCGDTTGSSVTLGCLVKGYFPEPVTLTWNSGSLSSGVHTFPAVLQSDLYTLSSSVTVTSSTWPSQSITCNVAHPASSTKVDKKIEPRGPTIKPCPPCKCPAPNLLGGPSVFIFPPKIKDVLMISLSPIVTCVVVDVSEDDPDVQISWFVNNVEVHTAQTQTHREDYNSTLRVVSALPIQHQDWMSGKEFKCKVNNKDLPAPIERTISKPKGSVRAPQVYVLPPPEEEMTKKQVTLTCMVTDFMPEDIYVEWTNNGKTELNYKNTEPVLDSDGSYFMYSKLRVEKKNWVERNSYSCSVVHEGLHNHHTTKSFSRTPGK
light: DIVMTQSHKFMSISEGDRVSITCKARQDVTTSVAWYQQKPGQSPKLLIYWASTRHTGVPDRFTGSGSGTDFTLTISSVQAEDLALYYCQQHYSTPYTFGGGTKLEIKRADAAPTVSIFPPSSEQLTSGGASVVCFLNNFYPKDINVKWKIDGSERQNGVLNSWTDQDSKDSTYSMSSTLTLTKDEYERHNSYTCEATHKTSTSPIVKSFNRGEC
- % TGI (TOV-112D cells): 74%
- % TGI (A2780 cells): 70%
- % TGI (SKOV-3 cells): 64%
- % TGI (OVCAR-3 cells): 84%
- Increase in Vessel Area vs. hFc (%) [1]: 276.5%
- Vessel Area (%), percent vessel fraction over total tumor area [1]: 5.53%
- Increase in Vessel Area vs. hFc (%) [2]: 146.8%
- Vessel Area (%), percent vessel fraction over total tumor area [2]: 4.36%
- tumor perfusion [3]: reduction
